The values below come from patent publication US5597798A, “Taxol and epidermal growth factor used to enhance treatment of ovarian cancer” (The Regents of the University of California, priority 1994, dated 1997).

Data set [1] deals with 2008 human ovarian carcinoma cells. The experiment in a line: Colony forming assay, effect of EGF on sensitivity to cytotoxic agents. Type of data set: cell-based. To be noted: for survival, % of control cells treated with DDP alone: DDP and EGF together.
Data set [2] deals with 2008 cells. Nature of the data set: Growth rate under EGF exposure. As to conditions: 2 h or continuous exposure to 10 nM EGF. Type of data set: cell-based, human. The source says:
(§1) During the first 5 days after cell seeding, cell growth was exponential. The doubling times of the 2008, 2008/C13*, and COLO 316 cells were 27.9, 28.2, and 29.2 hs, respectively.

Data set [3] has as its system 2008/C13* cells. The experiment in a line: Growth rate under EGF exposure. As to conditions: 2 h or continuous exposure to 10 nM EGF. Type of data set: cell-based, human.
Description: as §1

Data set [4] has as its system COLO 316 cells. The experiment in a line: Growth rate under EGF exposure. Type of data set: cell-based, human. To be noted: 2 h or continuous exposure to 10 nM EGF.
Description: as §1

Data set [5] has as its system 2008 cells. Nature of the data set: Morphologic changes induced by EGF (light microscopy of colonies). Type of data set: cell-based, human. As to conditions: 10 nM EGF for 2 hs, inspected after 10 days. From the text:
(§2) The colonies formed by the COLO 316 cells appeared somewhat denser.

Data set [6] has as its system 2008/C13* cells. The description is as above. To be noted: 2 h EGF exposure. Type of data set: cell-based, human.
Description: as §2

For data set [7], the system named is COLO 316 cells. Described as above. Type of data set: cell-based, human. As to conditions: 10 nM EGF for 2 hs, inspected after 10 days.
Description: as §2

In another data set the test system is 2008 tumor xenografts. The experiment in a line: Effect of EGF on cisplatin toxicity against tumor xenografts in athymic mice. Type of data set: in vivo, athymic mice (nu/nu). The method, then:
For these studies, 3 to 4 week old female athymic mice (nu/nu) from BALB/c origin were used which were supplied by Harlan Sprague Dawley, Inc. (Indianapolis, Ind.). The mice were kept in a laminar flow hood at 28° C. and fed standard mouse diet and water ad libitum.
Tumor xenografts were established from 2008 cells by harvesting confluent cell cultures by trypsinization and resuspending the cells in RPMI 1640 medium at 2.5×10^7 cells per ml. From this suspension, 0.2 ml aliquots containing 5×10^6 cells were injected s.c. on each shoulder of the athymic mice. In each mouse, two tumors were followed and tumor volumes were determined using the formula (length×width^2)/2 (Giavazzi et al., Cancer Res. 46:1928 (1986) and Tomayko & Reynolds Cancer Chemother. Pharmacol. 24:148 (1989)).
In all groups, treatment was administered 24 hours after the inoculation with tumor cells.
Tumor growth of each tumor in each animal was expressed as plot of in(tumor volume) as a function of time. The regression line of the in(tumor volume) versus time plot was calculated by using the method of least squares. The intercept and slope were obtained and used to calculate the time each tumor required to reach an arbitrarily defined volume of 1 ml. This volume was chosen because most tumors in all treatment groups reached this endpoint. For comparisons between two groups the unpaired Student's T-test was used. […]

On the set-up of data set [8]: species or system mice. To be noted: mouse, in vivo. The method, then: For nephrotoxicity studies, 72 h after treatment, mice were anesthetized and 1.5 ml of blood was sampled by cardiac puncture. Plasma creatinine and blood urea nitrogen (BUN) levels were used to measure toxicity and were determined by an enzymatic method previously described (Kulpman et al., J. Clin. Chem. Clin. Biochem. 28(11): 835 (1990)).

[9] abbreviates: 2 h exposure to EGF (1 h before and 1 h concurrent with DDP).
[10] abbreviates: delay between 1 h EGF pre-treatment and 1 h DDP exposure.

B1: EGF: Epidermal Growth Factor; murine EGF (Sigma) in clonogenic assays, 125I-labelled human recombinant EGF in binding assays (protein, UniProt P01133 23-1207, looked up)
Pro-epidermal growth factor: PQHWSCPEGTLAGNGNSTCVGPAPFLIFSHGNSIFRIDTEGTNYEQLVVDAGVSVIMDFHYNEKRIYWVDLERQLLQRVFLNGSRQERVCNIEKNVSGMAINWINEEVIWSNQQEGIITVTDMKGNNSHILLSALKYPANVAVDPVERFIFWSSEVAGSLYRADLDGVGVKALLETSEKITAVSLDVLDKRLFWIQYNREGSNSLICSCDYDGGSVHISKHPTQHNLFAMSLFGDRIFYSTWKMKTIWIANKHTGKDMVRINLHSSFVPLGELKVVHPLAQPKAEDDTWEPEQKLCKLRKGNCSSTVCGQDLQSHLCMCAEGYALSRDRKYCEDVNECAFWNHGCTLGCKNTPGSYYCTCPVGFVLLPDGKRCHQLVSCPRNVSECSHDCVLTSEGPLCFCPEGSVLERDGKTCSGCSSPDNGGCSQLCVPLSPVSWECDCFPGYDLQLDEKSCAASGPQPFLLFANSQDIRHMHFDGTDYGTLLSQQMGMVYALDHDPVENKIYFAHTALKWIERANMDGSQRERLIEEGVDVPEGLAVDWIGRRFYWTDRGKSLIGRSDLNGKRSKIITKENISQPRGIAVHPMAKRLFWTDTGINPRIESSSLQGLGRLVIASSDLIWPSGITIDFLTDKLYWCDAKQSVIEMANLDGSKRRRLTQNDVGHPFAVAVFEDYVWFSDWAMPSVMRVNKRTGKDRVRLQGSMLKPSSLVVVHPLAKPGADPCLYQNGGCEHICKKRLGTAWCSCREGFMKASDGKTCLALDGHQLLAGGEVDLKNQVTPLDILSKTRVSEDNITESQHMLVAEIMVSDQDDCAPVGCSMYARCISEGEDATCQCLKGFAGDGKLCSDIDECEMGVPVCPPASSKCINTEGGYVCRCSEGYQGDGIHCLDIDECQLGEHSCGENASCTNTEGGYTCMCAGRLSEPGLICPDSTPPPHLREDDHHYSVRNSDSECPLSHDGYCLHDGVCMYIEALDKYACNCVVGYIGERCQYRDLKWWELRHAGHGQQQKVIVVAVCVVVLVMLLLLSLWGAHYYRTQKLLSKNPKNPYEESSRDVRSRRPADTEDGMSSCPQPWFVVIKEHQDLKNGGQPVAGEDGQAADGSMQPTSWRQEPQLCGMGTEQGCWIPVSSDKGSCPQVMERSFHMPSYGTQTLEGGVEKPHSLLSANPLWQQRALDPPHQMELTQ
modifications: Pro-epidermal growth factor 125I-labelled; murine EGF also used
On to B1, for which the “EGF concentration of maximal enhancement of DDP sensitivity” value in data set [1] (setting [9]) is given as “about 10 nM”. The “lowest EGF concentration that enhanced sensitivity to DDP” value in [1] (setting [9]) stood at 0.4 nM. The entries for the “survival, % of control cells treated with DDP alone” value in data set [1] (no cyclohexamide) and in data set [1] (pretreatment with cyclohexamide inhibiting protein synthesis by 90%) were 31±10% and 47±8%, respectively. The “effect of further increase in EGF concentration” value in data set [1] (EGF up to 100 nM) is recorded as “no additional change in sensitivity to DDP”. In addition, the “loss of EGF mediated increase in sensitivity to DDP” value in data set [1] (setting [10]) is given as “largely disappeared by 24 hs”. Further, the “persistence of EGF mediated increase in sensitivity to DDP” value in [1] (setting [10]) is on record as “at least 6 hs”. For the same molecule, the “effect on growth rate” value in the data set on 2008 cells [2], with 2008/C13* cells [3] and with COLO 316 cells [4] was “Neither a 2 h nor a continuous exposure to 10 nM EGF had any demonstrable impact on the growth rate” each time. For the same molecule, the “morphologic change of colonies” value is “marked scattering of the colonies and the formation of prominent dendritic processes” with 2008 cells [5]; “marked scattering of the colonies and the formation of prominent dendritic processes” in the data set with COLO 316 cells [7]. In addition, the morphologic response entry in the data set with 2008/C13* cells [6] is on record as “showed no morphologic response”. Besides, the “time required for tumors to reach a volume of 1 ml (in words)” value with 2008 tumor xenografts (1 mg/kg EGF s.c. alone or with 15 mg/kg cisplatin i.p.) is recorded as “no effect on the time required for tumors to reach a volume of 1 ml”. In addition, the final tumor volume entry in the data set on 2008 tumor xenografts (1 mg/kg EGF s.c. and/or 15 mg/kg cisplatin i.p., 24 hours after inoculation) is recorded as “no effect on the final tumor volume”. In addition, in data set [8], the “serum creatinine or BUN” value was “Neither treatment with EGF alone, cisplatin alone, or EGF plus cisplatin resulted in statistically significant increases in serum creatinine or BUN”.
